Experimental data as given in article PMC7113243.

Molecular target: GST-tagged ID5 (human) (UniProt Q92793)
Assay: BLI; GST-tagged ID5 immobilised on the biosensors; IQGAP1-F 0.1 to 19 uM, twelve concentrations; association and dissociation 60 s each; RT; double referenced against buffer and GST; steady state fitted 1:1

Kd: 0.4 µM
Substance: IQGAP1-F, His-tagged IQGAP1 construct (residues 286-592 of IQGAP1) (from UniProt P46940 286-592) (domain or fragment)
